Assay results reported in patent publication US10434074B2, “Peptide and small molecule agonists of EPHA and uses thereof” (CASE WESTERN RESERVE UNIVERSITY, priority 2004, dated 2019).

What was measured:
EphA2 = molecular target: T1, EphA2 (Rattus norvegicus, UniProt D3ZBN3); test: EphA2 activation and ERK status in MatLyLu cells; assay type: cell-based
T1 construct: greatly elevated in MatLu and MatLyLu variants; endogenous in cells; host or cells: MatLyLu (Dunning R-3327 rat prostate cancer subline)
T1 sequence (D3ZBN3 1-977): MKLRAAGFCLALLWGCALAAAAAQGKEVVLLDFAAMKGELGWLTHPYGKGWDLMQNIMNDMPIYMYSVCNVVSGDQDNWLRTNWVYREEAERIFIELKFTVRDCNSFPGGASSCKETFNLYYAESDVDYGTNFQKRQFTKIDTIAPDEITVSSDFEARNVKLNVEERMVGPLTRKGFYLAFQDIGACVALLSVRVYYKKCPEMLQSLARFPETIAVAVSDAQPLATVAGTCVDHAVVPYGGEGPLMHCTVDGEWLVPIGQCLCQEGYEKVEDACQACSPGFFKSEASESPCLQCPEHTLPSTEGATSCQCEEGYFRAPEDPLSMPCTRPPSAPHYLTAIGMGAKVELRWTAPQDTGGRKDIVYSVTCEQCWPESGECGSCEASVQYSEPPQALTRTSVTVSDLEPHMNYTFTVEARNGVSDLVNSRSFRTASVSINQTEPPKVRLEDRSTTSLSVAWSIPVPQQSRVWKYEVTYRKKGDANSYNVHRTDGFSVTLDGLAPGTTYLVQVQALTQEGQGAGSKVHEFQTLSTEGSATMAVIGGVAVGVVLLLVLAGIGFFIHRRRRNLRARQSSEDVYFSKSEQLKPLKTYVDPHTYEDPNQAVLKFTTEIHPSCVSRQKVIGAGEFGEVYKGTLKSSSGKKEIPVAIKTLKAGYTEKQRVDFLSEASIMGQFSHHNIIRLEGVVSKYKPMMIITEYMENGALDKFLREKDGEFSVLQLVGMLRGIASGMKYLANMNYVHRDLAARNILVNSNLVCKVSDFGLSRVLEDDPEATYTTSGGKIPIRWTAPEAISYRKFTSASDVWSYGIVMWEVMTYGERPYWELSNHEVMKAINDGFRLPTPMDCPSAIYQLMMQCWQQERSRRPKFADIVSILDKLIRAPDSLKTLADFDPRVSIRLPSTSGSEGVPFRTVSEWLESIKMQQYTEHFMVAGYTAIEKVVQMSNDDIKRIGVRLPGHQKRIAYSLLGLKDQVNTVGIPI
Description: FIGS. 1(A-D) illustrate (A) EphA2 is the primary EphA kinase expressed on human prostate cancer cells. Cell surface proteins were labeled with membrane impermeable biotin (Method). Top panel: Saturating amount of ephrin-A1-Fc (EA1-Fc) was used to precipitate most EphA kinases. Lower panel: EphA2 was first immunodepleted from cell lysates with an EphA2-specific antibody. Saturating amount of ephrin-A1-Fc was then added to the EphA2-depleted cell lysates to precipitate other members of EphA kinases. The precipitates were subject immunoblot with HRP-labeled avidin. (B) Expression of EphA2, but not other EphA kinases and ephrin-As, is elevated in cell lines derived from more malignant prostate cancer. Total cellular proteins were immunoblotted with the indicated antibodies. (C) Immunofluorescence staining of EphA2. Human prostate cancer cells grown on cover slip were stained with anti-EphA2 antibody. Texas-Red labeled secondary was used to visualize the bound primary antibody. […] To determine the ERK activation status, total cell lysates were analyzed by immunoblot using anti-phospho ERK (p-ERK) antibody. […]
Cells cultured in 6 well plates at 70-80% confluence were stimulated with 0.5 μg/ml Fc, 1 μg/ml epnrinA1-Fc or 20 ng/ml HGF/SF or their combinations as indicated. […] For quantitative analysis, band densities were measured using KODAK 1D imagine analysis software (Eastman Kodak Company).

DU-145 cells = test: Wound healing assay; assay type: cell-based, human; conditions: 12 hours
Description: FIGS. 2(A-E) illustrate EphA activation inhibited DU-145 cell migration. (A) Expression of c-Met is elevated in cell lines derived from more malignant prostate cancer. Total cellular proteins were immunoblotted with anti-human c-Met. An anti-tubulin blot was used as a control for protein loading. (B) In a modified Boyden chamber assay, DU-145 cells were placed in the upper chamber and allowed to migrate to the lower chamber containing indicated reagents. After 8 hours, cells were stained with crystal violet and cells remaining in the upper chamber were removed. Top panel: Cells migrated to the undersides of membrane were counted; six high power fields were counted. Results represent means±S.D. Representative fields were shown in the lower panel. (C) Ephrin-A1-Fc inhibits DU-145 cell migration when HGF/SF was uniformly presented in both sides of membranes. The experiment was carried out as described in A. (D) Inhibition of cell scattering by immobilized ephrin-A1 in a SOIL assay (Method). Ephrin-A1-Fc or control Fc was immobilized on 6-well culture dishes. Freshly confluent DU-145 cells on cover slips were transferred to the coated surfaces. Cells were stimulated with HGF/SF to induce migration off the cover slips to immobilized Fc or ephrin-A1-Fc. […] The wound healing was recorded prior to and 12 hours after the addition of Fc, ephrin-A1-Fc (1 μg/ml) and/or HGF/SF (20 ng/ml). […]

[1] = system: H125, H1975 and SKMES cells; test: ERK and AKT phosphorylation in non-small cell lung cancer cells; assay type: cell-based, human; conditions: 2 ìg/ml, 10 and 30 minutes
Text: (§1) FIGS. 47(A-C) illustrate A) Expression of β-gal in EphA2 KO mouse lung. Frozen sections were fixed and stained with X-gal and followed by counterstaining with nuclear Fast-Red. B) Expression of EphA2 in the lung from wild-type mice. Lung frozen sections were stained with goat polyclonal antibodies that recognize the ectodomain of EphA2 followed by detection with donkey anti-goat IgG conjugated with FITC. C) EphA kinase activation by ephrin-A1 in H125, H1975 and SKMES human non-small cell lung cancer cells. Cells were stimulated with 2 ìg/ml of ephrin-A1-Fc for 10 and 30 minutes.
as §1, with “FIG. 47A illustrates the expression” for “FIGS. 47(A-C) illustrate A) Expression”, “knockout” for “KO”, “FIG. 47B illustrates expression” for “B) Expression”, “FIG. 47C illustrates” for “C)”

B1: ephrin-A1-Fc: ephrin-A1 dimerized by fusion to the heavy chain of human IgG1 (protein)
chain: DRHTVFWNSSNPKFRNEDYTIHVQLNDYVDIICPHYEDHSVADAAMEQYILYLVEHEEYQLCQPQSKDQVRWQCNRPSAKHGPEKLSEKFQRFTPFTLGKEFKEGHSYYYISKPIHQHEDRCLRLKVTVSGKITHSPQAHDNPQEKRLAADDPEVRVLHSIGHS
modifications: left off: a dimerising Fc or GST
notes: ephrin-A1 dimerized by fusion to the heavy chain of human IgG1
ERK1/2 activity (EphA2): reduced
EphA2 activation, time course (EphA2): readily occurred in two minutes
wound closing (DU-145 cells; vs Fc): slowed down the speed of wound closing
wound closing with HGF/SF (DU-145 cells; vs HGF/SF and Fc): the wound closing was also delayed
ERK and AKT phosphorylation [1]: inhibits ERK and AKT phosphorylation
